# Data reported in US20250243277A1 (AVACTA LIFE SCIENCES, published 2025).
# Residue numbers refer to the chain shown, from its start.
# B1: Clone 185 (designed binder)
# chain: MIPGGLSEAKPATPEIQEIVDKVKPQLEEKTGETYGKLEAVQYKTQVVVVLFASGWEGTNYYIKVRAGDNKYMHLKVFKSLIQWRDHKPREDLVLTGYQVDKNKDDELTGF
# notes: His-tagged
# B2: Clone 206 (designed binder)
# chain: MIPGGLSEAKPATPEIQEIVDKVKPQLEEKTGETYGKLEAVQYKTQVVRADVNVIWWGTNYYIKVRAGDNKYMHLKVFKSLPVKYKEILLEDLVLTGYQVDKNKDDELTGF
# notes: His-tagged
# B3: Clone 198 (designed binder)
# chain: MIPGGLSEAKPATPEIQEIVDKVKPQLEEKTGETYGKLEAVQYKTQVVSSPLHWELWHWSGTNYYIKVRAGDNKYMHLKVFKSLELNNKDQNDEDLVLTGYQVDKNKDDELTGF
# notes: His-tagged
# B4: Clone 20 (designed binder)
# chain: MIPGGLSEAKPATPEIQEIVDKVKPQLEEKTGETYGKLEAVQYKTQVVANSKWHYAFGTNYYIKVRAGDNKYMHLKVFKSLDNAIYRGPTEDLVLTGYQVDKNKDDELTGF
# notes: His-tagged
# B5: Clone 187 (designed binder)
# chain: MIPGGLSEAKPATPEIQEIVDKVKPQLEEKTGETYGKLEAVQYKTQVVIQDWTVGWEGTNYYIKVRAGDNKYMHLKVFKSLRIGRSTNLWEDLVLTGYQVDKNKDDELTGF
# notes: His-tagged
# B6: Clone 254 (designed binder)
# chain: B5 chain with Q50S, W52V, T53S, I83S, R85P, S86A, T87H, N88V, L89R, W90R
# notes: His-tagged
# B7: Clone 200 (designed binder)
# chain: MIPGGLSEAKPATPEIQEIVDKVKPQLEEKTGETYGKLEAVQYKTQVVYGPHHQTYAGTNYYIKVRAGDNKYMHLKVFKSLYALHINRWPEDLVLTGYQVDKNKDDELTGF
# notes: His-tagged
# B8: Clone 195 (designed binder)
# chain: MIPGGLSEAKPATPEIQEIVDKVKPQLEEKTGETYGKLEAVQYKTQVVVGVGRDFPKGTNYYIKVRAGDNKYMHLKVFKSLYIHYLKVNEEDLVLTGYQVDKNKDDELTGF
# notes: His-tagged
# B9: Clone 34 (designed binder)
# chain: MIPGGLSEAKPATPEIQEIVDKVKPQLEEKTGETYGKLEAVQYKTQVVTHLNNNAWTGTNYYIKVRAGDNKYMHLKVFKSLFFHNGKIYREDLVLTGYQVDKNKDDELTGF
# notes: His-tagged
# B10: Clone 203 (designed binder)
# chain: MIPGGLSEAKPATPEIQEIVDKVKPQLEEKTGETYGKLEAVQYKTQVVYHGPPKEWLGTNYYIKVRAGDNKYMHLKVFKSLFFWKGNGYREDLVLTGYQVDKNKDDELTGF
# notes: His-tagged
# B11: Clone 191 (designed binder)
# chain: MIPGGLSEAKPATPEIQEIVDKVKPQLEEKTGETYGKLEAVQYKTQVVLRYHFPEFHGTNYYIKVRAGDNKYMHLKVFKSLNHLAIHELPEDLVLTGYQVDKNKDDELTGF
# notes: His-tagged
# B12: Clone 182 (designed binder)
# chain: MIPGGLSEAKPATPEIQEIVDKVKPQLEEKTGETYGKLEAVQYKTQVVLKTNPSPSDGTNYYIKVRAGDNKYMHLKVFKSLAVFRQRLGVEDLVLTGYQVDKNKDDELTGF
# notes: His-tagged
# B13: Clone 186 (designed binder)
# chain: MIPGGLSEAKPATPEIQEIVDKVKPQLEEKTGETYGKLEAVQYKTQVVYDNVKEYPWGTNYYIKVRAGDNKYMHLKVFKSLKWYDPTIRPEDLVLTGYQVDKNKDDELTGF
# notes: His-tagged
# B14: Clone 193 (designed binder)
# chain: MIPGGLSEAKPATPEIQEIVDKVKPQLEEKTGETYGKLEAVQYKTQVVLRHPVQDDDGTNYYIKVRAGDNKYMHLKVFKSLAGVNRWKWIEDLVLTGYQVDKNKDDELTGF
# notes: His-tagged
# B15: Clone 188 (designed binder)
# chain: MIPGGLSEAKPATPEIQEIVDKVKPQLEEKTGETYGKLEAVQYKTQVVPQENAPWVLGTNYYIKVRAGDNKYMHLKVFKSLNWDQPDTVLEDLVLTGYQVDKNKDDELTGF
# notes: His-tagged
# B16: Clone 197 (designed binder)
# chain: MIPGGLSEAKPATPEIQEIVDKVKPQLEEKTGETYGKLEAVQYKTQVVWKPQDSVNWGTNYYIKVRAGDNKYMHLKVFKSLDWDGAAGDAEDLVLTGYQVDKNKDDELTGF
# notes: His-tagged
# B17: Clone 181 (designed binder)
# chain: MIPGGLSEAKPATPEIQEIVDKVKPQLEEKTGETYGKLEAVQYKTQVVKAYKVFNYIGTNYYIKVRAGDNKYMHLKVFKSLFKWDNGISDEDLVLTGYQVDKNKDDELTGF
# notes: His-tagged
# B18: Clone 217 (designed binder)
# chain: MIPGGLSEAKPATPEIQEIVDKVKPQLEEKTGETYGKLEAVQYKTQVVKKYVIFFYEGTNYYIKVRAGDNKYMHLKVFKSLFVNKGGSDDEDLVLTGYQVDKNKDDELTGF
# notes: His-tagged
# B19: Clone 79 (designed binder)
# chain: MIPGGLSEAKPATPEIQEIVDKVKPQLEEKTGETYGKLEAVQYKTQVVIWHSEWSYTGTNYYIKVRAGDNKYMHLKVFKSLFTRHSEPWEEDLVLTGYQVDKNKDDELTGF
# notes: His-tagged
# B20: Clone 202 (designed binder)
# chain: MIPGGLSEAKPATPEIQEIVDKVKPQLEEKTGETYGKLEAVQYKTQVVIRHVIWSYSGTNYYIKVRAGDNKYMHLKVFKSLWERNASLSEEDLVLTGYQVDKNKDDELTGF
# notes: His-tagged
# B21: Clone 2 (designed binder)
# chain: MIPGGLSEAKPATPEIQEIVDKVKPQLEEKTGETYGKLEAVQYKTQVVASFIDIGWHGTNYYIKVRAGDNKYMHLKVFKSLREGKHGRNKEDLVLTGYQVDKNKDDELTGF
# notes: His-tagged
# B22: Clone 36 (designed binder)
# chain: MIPGGLSEAKPATPEIQEIVDKVKPQLEEKTGETYGKLEAVQYKTQVVWSFAQVGWHGTNYYIKVRAGDNKYMHLKVFKSLRRFEHLPFYEDLVLTGYQVDKNKDDELTGF
# notes: His-tagged
# B23: Clone 183 (designed binder)
# chain: MIPGGLSEAKPATPEIQEIVDKVKPQLEEKTGETYGKLEAVQYKTQVVRQTDSVKWWGTNYYIKVRAGDNKYMHLKVFKSLWYNRYYNDFEDLVLTGYQVDKNKDDELTGF
# notes: His-tagged
# B24: Clone 204 (designed binder)
# chain: MIPGGLSEAKPATPEIQEIVDKVKPQLEEKTGETYGKLEAVQYKTQVVSLRPHEQLYGTNYYIKVRAGDNKYMHLKVFKSLHLKLWKIPNEDLVLTGYQVDKNKDDELTGF
# notes: His-tagged
# B25: Clone 199 (designed binder)
# chain: MIPGGLSEAKPATPEIQEIVDKVKPQLEEKTGETYGKLEAVQYKTQVVRDHELVNQWGTNYYIKVRAGDNKYMHLKVFKSLFGQPVQGNTEDLVLTGYQVDKNKDDELTGF
# notes: His-tagged
# B26: Clone 209 (designed binder)
# chain: MIPGGLSEAKPATPEIQEIVDKVKPQLEEKTGETYGKLEAVQYKTQVVIAKEENHWRGTNYYIKVRAGDNKYMHLKVFKSLHYYQDVLYREDLVLTGYQVDKNKDDELTGF
# notes: His-tagged
# Molecular target: T1, human PD-L1-Fc (R&D Systems) (human, UniProt Q9NZQ7 19-239)
# T1 construct: Bought from R&D Systems; Biotinylated in-house for the phage selection; also called huPD-L1-Fc; human PD-L1-Fc antigen; not shown: Fc part of the bought fusion
# T1 sequence (Q9NZQ7 19-239 limits assumed): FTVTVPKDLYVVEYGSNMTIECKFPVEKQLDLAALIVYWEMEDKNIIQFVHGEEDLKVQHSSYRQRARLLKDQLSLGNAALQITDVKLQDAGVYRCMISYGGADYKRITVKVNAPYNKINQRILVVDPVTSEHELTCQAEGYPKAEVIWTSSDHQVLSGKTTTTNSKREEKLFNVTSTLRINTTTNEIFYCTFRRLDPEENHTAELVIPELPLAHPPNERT
# Experiment: soluble Affimer ELISA
row,binding result,Binder
1,binds,B1
2,binds,B2
3,binds,B3
4,binds,B4
5,binds,B5
6,binds,B6
7,binds,B7
8,binds,B8
9,binds,B9
10,binds,B10
11,binds,B11
12,binds,B12
13,binds,B13
14,binds,B14
15,binds,B15
16,binds,B16
17,binds,B17
18,binds,B18
19,binds,B19
20,binds,B20
21,binds,B21
22,binds,B22
23,binds,B23
24,binds,B24
25,binds,B25
26,binds,B26
